± gives the uncertainty stated by the source.
Assay: protein stability index of a GFP-peptide fusion (yeast GPS) (PSI 1-4); higher = more stable; sorted into four equal gates, so the index is relative within each strain
Method in brief: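 The protein stability index of a peptide was calculated by multiplying its read frequency in each gate by that gate's number and adding the products. The peptides were tiled 17-residue stretches of yeast proteins, fused downstream of GFP on a Cherry-expressing plasmid and carried in yeast as a pooled library. Mid-log cultures in leucine-free medium were sorted into four equal gates by GFP/Cherry ratio, and each gate's plasmids were PCR-amplified and Illumina-sequenced.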

Sequence | protein stability index (doa10∆) | protein stability index (pdr5∆) | protein stability index (san1∆) | protein stability index (ubr1∆)
GAIAYNQFKRIDTLLYL [RET1] | 1.4 ± 0.1 | 1.42 ± 0.1 | 1.48 ± 0.14 | 1.54 ± 0.066
LFKYQGHIGAYLIVAGV [PUP1] | 1.66 ± 0.067 | 2.04 ± 0.06 | 1.39 ± 0.12 | 2.53 ± 0.055
HRVAENWRKQKGIDSVV [RPL32] | 2.55 ± 0.099 | 2.61 ± 0.17 | – | 2.25 ± 0.18
KPSSPPDVKSLVQLSTM [SIR4] | 3.41 ± 0.11 | 3.26 ± 0.07 | 3.12 ± 0.088 | 3.26 ± 0.06
RFPTKFVTQFRHLRRTG [RET1] | 1.41 ± 0.078 | 1.73 ± 0.14 | – | 2.17 ± 0.068
EILEKCAEGIFVVKLDT [GAL11] | – | – | – | 3.72 ± 0.28
VTFIFGELKRGNESVKP [MED11] | 3.43 ± 0.17 | 3.12 ± 0.077 | 2.97 ± 0.1 | 2.98 ± 0.15
EDDESLGHKELKVRKGH [RPB2] | 2.29 ± 0.071 | 2.54 ± 0.067 | 2.45 ± 0.076 | 2.97 ± 0.049
THLHEALDIVCSDFVKI [NUT1] | 2.28 ± 0.089 | 2.48 ± 0.063 | 2.15 ± 0.11 | 1.92 ± 0.078
GSTSLIEGMEQRIIKEL [ARP7] | 3.19 ± 0.12 | 3.23 ± 0.12 | 2.98 ± 0.24 | 2.71 ± 0.21
KSRGSDLQYLGEFSGKN [RRP6] | 3.13 ± 0.088 | 3.34 ± 0.11 | 3.45 ± 0.082 | 3.31 ± 0.073
RRFNSSIGRTAQGKEFG [RPL17A] | 3.03 ± 0.078 | 2.96 ± 0.089 | 2.95 ± 0.098 | 2.89 ± 0.07
QFQKARNNVMLLIATNL [SRB8] | 1.74 ± 0.11 | 1.81 ± 0.1 | 2.24 ± 0.13 | 1.93 ± 0.071
ADILCPLLESFITFSLD [IRR1] | 2.63 ± 0.11 | 2.32 ± 0.081 | 2.17 ± 0.071 | 2.34 ± 0.064
TMANILYYPQKPLGTTR [RPB2] | 1.77 ± 0.057 | 2.47 ± 0.095 | 2.27 ± 0.074 | 1.45 ± 0.04
IYNNIVSNIEGILDEIM [RGR1] | 2.72 ± 0.08 | 2.09 ± 0.066 | 2.15 ± 0.098 | 2.46 ± 0.05
VGEEETSQKMKKMVYVL [SRP54] | 3.31 ± 0.11 | 3.38 ± 0.11 | 3.31 ± 0.078 | 3.17 ± 0.077
TPEKDLFIGLFTRPLFV [YCS4] | 1.54 ± 0.084 | 1.32 ± 0.079 | 1.96 ± 0.27 | 1.45 ± 0.096
RKFALEKLYIFYKLNMP [SRP72] | 1.99 ± 0.046 | 1.79 ± 0.057 | 1.44 ± 0.085 | 1.29 ± 0.039
IADSTHVKRITKIAQSQ [ECM29] | 1.86 ± 0.097 | 1.71 ± 0.059 | 1.3 ± 0.12 | 1.38 ± 0.044
HGIVFQHPFPLAHSQHR [SSN2] | 2.14 ± 0.066 | 2.23 ± 0.068 | 2.01 ± 0.085 | 2.38 ± 0.078

Sequence | protein stability index (doa10∆) | protein stability index (pdr5∆) | protein stability index (san1∆) | protein stability index (ubr1∆)
SKKGKPTVNKKPKNKKK [SRP72] | 2.73 ± 0.15 | 2.68 ± 0.11 | 2.45 ± 0.12 | 2.9 ± 0.098
SSNPLGITGNLDRIPMH [COB] | 2.62 ± 0.098 | 2.52 ± 0.077 | 2.44 ± 0.065 | 2.49 ± 0.094
IHLYMLTFHTLKKANII [YLR018C/POM34] | 1.31 ± 0.051 | 1.27 ± 0.06 | 1.21 ± 0.12 | 1.09 ± 0.042
AAAGAAMIDAGALEEIT [FAS2] | 2.72 ± 0.15 | 2.96 ± 0.11 | – | 2.73 ± 0.1
TEKNREIYKQLNDRQEE [YIL149C/MLP2] | 3.42 ± 0.073 | 3.41 ± 0.063 | 3.57 ± 0.042 | 3.12 ± 0.057
SHTQNIGHLIKTRFKGS [SMC2] | 2.94 ± 0.11 | 1.98 ± 0.086 | 1.96 ± 0.13 | 2.27 ± 0.066
NVGKPDQSIASGNTNGA [YOR098C/NUP1] | 3 ± 0.2 | 2.09 ± 0.28 | 2.83 ± 0.085 | 2.93 ± 0.1
IVKVFHGAFMDIIWLQR [RRP6] | 2.1 ± 0.056 | 1.53 ± 0.047 | 1.32 ± 0.073 | 1.18 ± 0.033
GKEFGTTPEKPEETPLE [FAS2] | 2.77 ± 0.095 | 2.7 ± 0.076 | 2.6 ± 0.059 | 2.81 ± 0.069
PQQQQQHLQFNGSSDAS [YDL088C/ASM4] | 2.41 ± 0.042 | 2.22 ± 0.048 | 2.04 ± 0.066 | 2.27 ± 0.03
TLQDFHLIFSNARIYNT [SNF2] | 2.25 ± 0.081 | 2.17 ± 0.1 | 1.63 ± 0.18 | 2.79 ± 0.073
IQRFFALHYLVPFIIAA [COB] | 1.39 ± 0.052 | 1.17 ± 0.063 | 1.11 ± 0.15 | 1.09 ± 0.036
ALYIAMMTRRVVMAMYN [RET1] | 3.11 ± 0.28 | – | – | –
KSKFNKSNRSYSIALSN [GAL11] | 2.85 ± 0.075 | 2.47 ± 0.13 | 3.1 ± 0.12 | 2.81 ± 0.064
GNVIQFIYGEDGMDAAH [RPO21] | 2.89 ± 0.065 | 2.58 ± 0.06 | 3.2 ± 0.063 | 3.32 ± 0.042
DNIRYATALQTCAGGRL [SMC2] | 2.31 ± 0.086 | 3.02 ± 0.083 | 2.8 ± 0.11 | 1.62 ± 0.058
ILAMTYSENGKHDSLRY [RPN1] | 3.28 ± 0.23 | – | 2.73 ± 0.2 | 2.62 ± 0.29
IYLSRFLIKASVREINL [SSN8] | 1.83 ± 0.18 | 1.86 ± 0.13 | 2.04 ± 0.13 | 1.25 ± 0.16
EAVEIPVNSADGKEDVE [SME1] | 2.29 ± 0.061 | 2.8 ± 0.056 | 2.77 ± 0.04 | 2.67 ± 0.04
LVAIFGGQGNTDDYFEE [FAS1] | 3.15 ± 0.12 | 3.48 ± 0.083 | 3.26 ± 0.065 | 3.23 ± 0.064

From the supplement of paper PMC9732359
